According to article PMC4576506:

Target: recombinant human glycine receptor α1 subunit (hGlyRα1) homopentamer, detergent solubilized (human) (UniProt P23415)
Assay: SEC

stoichiometry N: 5
Substance: recombinant human glycine receptor α1 subunit (hGlyRα1) homopentamer, detergent solubilized (from UniProt P23415-2 29-449)
